Data: PMC3785249

Key:
[1] = target: S267E/L328F variant of human IgG1 (human); assay: SPR; Biacore; antibody variants captured on a CM5 chip with immobilised antigen peptide or protein A/G, FcγR injected; kinetic analysis by global fitting with a 1:1 Langmuir model (KD)
[2] = target: wild-type human IgG1 (human); assay: SPR; KD for soluble hFcRn at pH 6.0; as described previously (Igawa et al., 2010)
[3] = target: V12 variant of human IgG1 (human); assay: as above
[4] = target: human FcγRIIa^H131, extracellular region (UniProt P12318); assay: binding screen of single-substitution variants (method not named in legend); conditions: read off a plot
[5] = target: human FcγRIIb, extracellular region (UniProt P31994); assay: as above; conditions: read off a plot
[6] = target: human FcγRIIa^R131, extracellular region; assay: as above; conditions: read off a plot

UniProt P31994, sequence (P31994 43-217): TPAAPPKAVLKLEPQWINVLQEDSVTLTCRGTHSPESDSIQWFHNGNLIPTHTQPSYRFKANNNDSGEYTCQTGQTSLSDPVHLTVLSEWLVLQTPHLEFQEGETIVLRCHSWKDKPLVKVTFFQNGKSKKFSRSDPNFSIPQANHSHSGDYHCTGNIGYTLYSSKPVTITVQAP
UniProt P12318, sequence (P12318 34-217): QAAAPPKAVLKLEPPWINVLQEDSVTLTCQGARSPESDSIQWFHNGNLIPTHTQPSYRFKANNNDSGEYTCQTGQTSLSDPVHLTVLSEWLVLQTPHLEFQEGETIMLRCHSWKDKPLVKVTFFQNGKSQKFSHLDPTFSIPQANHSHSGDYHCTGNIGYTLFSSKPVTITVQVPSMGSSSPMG

| Substance | fold increase in affinity over IgG1, KD (IgG1)/KD (Fc variant) [1] [fold] | Kd [2] [nM] | Kd [3] [nM] | percent of parent (template antibody = 100) [4] | percent of parent (template antibody = 100) [5] | percent of parent (template antibody = 100) [6] |
| --- | --- | --- | --- | --- | --- | --- |
| wild-type human IgG1 L328E |  |  |  | 15 | 180 |  |
| wild-type human IgG1 L328F |  |  |  | 53 | 300 | 190 |
| wild-type human IgG1 S267E |  |  |  | 100 | 410 | 190 |

The next lines start with the values.

| fold increase in affinity over IgG1, KD (IgG1)/KD (Fc variant) [1] [fold] | Kd [2] [nM] | Kd [3] [nM] | percent of parent (template antibody = 100) [4] | percent of parent (template antibody = 100) [5] | percent of parent (template antibody = 100) [6] | Substance |
| --- | --- | --- | --- | --- | --- | --- |
| 864 |  |  |  |  |  | human FcγRIIa^R131, extracellular region (receptor) |
|  | 1500 | 1400 |  |  |  | recombinant, soluble human FcRn (from UniProt P55899 24-297) (complex) |
|  |  |  | 2 | 210 | 12 | wild-type human IgG1 P238D |
